# In the nanobody polyreactivity screen of Harvey et al. (2022):
# Assay: yeast display, Sf9 membrane polyspecificity reagent, FACS + sequencing; frameworks hold sequencing errors
# Method in brief: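 Polyreactivity labels are assigned by the sorting gate from which each nanobody was recovered. The gates were low and high (top ~1%), set on anti-HA fluorescence for expression and streptavidin fluorescence for reagent binding. Before sorting, galactose-induced (36–48 hours) yeast display cells were stained for 1 hour at 4 °C with 10% biotinylated, detergent-solubilized Sf9 membrane reagent.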
row,Sequence,polyreactivity (PSR sort gate)
1,QVQLVESGGGLVQAGGSLRLSCAASGSIFLKYAMGWYRQAPGKERELVAAISRGGDTNYADSVKGRFTISRDNAKNTVYLQMNSLKPEDTAVYYCAARPGLYFTRRGRYYWGQGTQVTVSS,high polyreactivity
2,QVQLVESGGGLVQAGGSLRLSCAASGSIFLKYTMGRYRQAPGKERELVAAITSGGTTNYADSVKGRFTISRDNAKNTVYLQMNSLKPEDTAVYYCARDSYQLGLIRDPLEYDYWGQGTQETVSS,low polyreactivity
3,QVQLVESGGGLVQAGGSLRLSCAASGSIFLQNAMGWYRQAPGKERELVAAITNGGSTNYADSVKGRFTISRDNAKNTVYLQMNSLKPEDSAVYYCAAYPLYTGSYDRGGYWGQGTQVTVSS,low polyreactivity
4,QVQLVESGGGLVQAGGSLRLSCAASGSIFLRYAMGWYRQAPGKERELVASITSGGSRYYADSVKGRFTISRDNAKNTVYFQMNSLKPEDTAVYYCNALPYRYRRYDYWGQGTQVTVSS,low polyreactivity
5,QVQLVESGGGLVQAGGSLRLSCAASGSIFLSNMGWYRQAPGKERELVAAISRNGGSTYYADSVKGRFTISRDNAKNTVYLQMNSLKPEDTAVYYCAVQRYWGQGTQVTVSS,high polyreactivity
6,QVQLVESGGGLVQAGGSLRLSCAASGSIFLSYDMGWYRQAPGNESELVAAITQSGGSTYYADSVKGRFTISRDNAKNTVYLQMNSLKPEDTAVYYCAADYGYFPQETYPTYGYYYWGQGTQVTVSS,low polyreactivity
7,QVQLVESGGGLVQAGGSLRLSCAASGSIFLSYTMGRYRQAPGKERELVAAITSGGSTKYADSVKGRFTISRDNAKNTVYLQMNSLKPEDTAVYYCNATPYSRLGYWGQGTQVTVSS,high polyreactivity
8,QVQLVESGGGLVQAGGSLRLSCAASGSIFLTYTMGWYRQATGKERELVAAITDSDGSTSYADSVKGRFTISRDNAKNTVYLQMNSLKPEDTAVYYCAVEGYWYAGWYAMDYWGQGTQVTVSS,low polyreactivity
9,QVQLVESGGGLVQAGGSLRLSCAASGSIFLVNAMGWYRQAPGERKELVAAISWSSGSTYYADSVKGRFTISRDNAKNTVYLQMNSLKPEDTAVYYCAKRSSITYRYDYWGQGTQVTVSS,high polyreactivity
10,QVQLVESGGGLVQAGGSLRLSCAASGSIFLVYAMGWYRQAPGKERELVAAIRISDSTNYADSVKGRFTISRDNAKNTVYLQMNSLKPEDTAVYYCNVDTVGLGGEKGGYYWGQGTQVTVSS,low polyreactivity
11,QVQLVESGGGLVQAGGSLRLSCAASGSIFLWNAMGWYRQAPGKEREFVASITSRGGSTYYADSVKGRFTISRDNAKNTVYLQMNSLKPEDTAVYYCAAVRSKYLYYQGGYSSYGYWGQGTQVTVSS,high polyreactivity
12,QVQLVESGGGLVQAGGSLRLSCAASGSIFLYNAMGWYRQAPGKERELVAAISAIGSNTYYADSVKGRFTISRDNAKNTVYLQMNSLKPEDTAVYYCAAESVNVVNFGTRVGYWGQGTQVTVSS,high polyreactivity
13,QVQLVESGGGLVQAGGSLRLSCAASGSIFLYNAMGWYRQAPGKERELVAAISSSSDRTYYADSVKGRFTISRDNAKNTVYLQMNSLKPEDTAVYYCNVVYIGWRKYEYWGQGTQVTVSS,high polyreactivity
14,QVQLVESGGGLVQAGGSLRLSCAASGSIFLYNAMGWYRQAPGKESEFDAAISWSGVSTYYADSVKGRFTISRDNAKNTVYLHMNSLKPEDTAVYYCNAVYARVPIYDYWGQGTQVTVSS,low polyreactivity
15,QVQLVESGGGLVQAGGSLRLSCAASGSIFLYNAMRWYRQAPGKERELVAAKSYSGASTYYADSVKGRFTISRDNAKNTVYLQMNSLKAEDTAVYYCAKTFRYKWPYGTPKYDYWGQGTQVTVSS,high polyreactivity
16,QVQLVESGGGLVQAGGSLRLSCAASGSIFLYYAMGWYIQAPGKERELVAGIRRGGRTNYADSVKGRFTISRDNAKNTVYLQMNSLKPEDTAVYYCAKGGYWGHGTQVTVSS,high polyreactivity
17,QVQLVESGGGLVQAGGSLRLSCAASGSIFLYYAMGWYTQAPGKERELVASISSTGSTYYADSVKGRFTISRDNAKNTVYLLINSLKPEDTGVYYCAKRRWYYYPRYSLSTQMDYWGQGTQVTVSS,high polyreactivity
18,QVQLVESGGGLVQAGGSLRLSCAASGSIFMRYSMGWYRQAPGKDRELVAAITRSGGSTYYADSVKGRFTISRDNAKNTVYLQMNSLKPEDTAVYFCAAYTFVTVGYDYWGQGTQVTVSS,high polyreactivity
19,QVQLVESGGGLVQAGGSLRLSCAASGSIFNGNAMGWYRQAPGKERELVAAITRRGGRTYYADSVKGRFTISRDNAKNTVYLQMNSLKPEDTAVYYCNAYSKAVQGGYYYWGQGTQVTVSS,high polyreactivity
20,QVQLVESGGGLVQAGGSLRLSCAASGSIFNGYAMGWYRQAPGKERELVAAISWSGVGTYYADSVKGRFTISRDNAKNTVYLEMNSLKPEDTAVYYCNAVATHDWLRVDTYEYWGQGTQVTVSS,low polyreactivity
21,QVQLVESGGGLVQAGGSLRLSCAASGSIFNGYAMGWYRQAPGKERELVATITRGGGSTYYADSVKGRFTISRDNAKNTVYLQMNSLKPEDTAVYYCAKTYFYGVRRFNYWGQGTQVTVSS,high polyreactivity
22,QVQLVESGGGLVQAGGSLRLSCAASGSIFNINAMGWCRQAPGKDRELVATITSGGTTSYADSVKGRFTISRDNAKNTVYLQMNSLKPEDTAVYYCNAEIYPIVKAGRQHPRRYDYWGQGTQVTVSS,low polyreactivity

row,Sequence,polyreactivity (PSR sort gate)
1,QVQLVESGGGLVQAGGSLRLSCAASGSIFNIYAMGWYRQAPGKERELVATITGIADSTYYADSVKGRFTISRDNAKNTVYLQMNSLKPEDTAVYFCAAEKYVAEYEYWGQGTQVTVSS,low polyreactivity
2,QVQLVESGGGLVQAGGSLRLSCAASGSIFNIYAMGWYRQAPGKERELVATITGIADSTYYADSVKGRFTISRDNAKNTVYLQMNSLKPEDTAVYYCAAIYGSRYTTGQTRRDYYSWGQGTQVTVSS,low polyreactivity
3,QVQLVESGGGLVQAGGSLRLSCAASGSIFNLYAMGWYRQAPGKERELVAAISRSGGSTYYADSVKGRFTISRDNAKNTVYLQMNSLKPEDTAVYYCAARYNWRYDIFDYWGQGTQVTVSS,high polyreactivity
4,QVQLVESGGGLVQAGGSLRLSCAASGSIFNLYGMGWYRQAPGKERELVAGSTSSGGSTHYADSVKGRFTISRDNAKNTVYLQMNSLKPEDTAVYYCAKVWSFPSNYRAYYYWGQGTQVTVSS,high polyreactivity
5,QVQLVESGGGLVQAGGSLRLSCAASGSIFNNYAMGWYRQAPGKEREFVAAISRSGGSTYYADSVKGRFTISRDNAKNTVYLQMNSLKPEDTAVYYCATDHGRYHGRYDYWGQGTQVTVSS,high polyreactivity
6,QVQLVESGGGLVQAGGSLRLSCAASGSIFNPNAMGWYRQAPGKEREVVAAIDSGGTTDYADSVKGRFTISRDNAKNTVYLQINSLKPEDTAVYYCNADRTVTSSSFTDYDYWGQGTQVTVSS,high polyreactivity
7,QVQLVESGGGLVQAGGSLRLSCAASGSIFNPYAMGWSRQAPGKEWELVAAISYDTTSTYYADSVKGRFTISRDNAKNTDYLQMNSLKPEDTAVYYCAARDQYGPGYRSESLDSWGQGTQETVSS,low polyreactivity
8,QVQLVESGGGLVQAGGSLRLSCAASGSIFNPYAMGWYRQAPGKERELVAAISYTGGRTYYADSVKGRFTISRDNAKNTVYLQMNSLKPEDTAVYYCAAGHYVYWYRYQLGRYNYWGQGTQVTVSS,high polyreactivity
9,QVQLVESGGGLVQAGGSLRLSCAASGSIFNQYAMGWHRQAPGKERELVAAISSSGGSTYYADSVKGRFTISRDNAKNTVYLQMNSLKPEDTAVYYCAARPSGRGYYLLGYWGQGTQVTVSS,low polyreactivity
10,QVQLVESGGGLVQAGGSLRLSCAASGSIFNRNAMGWYRQAPGKERELVASINYSGGSTYYADSVKGRFTISRDNAKNTVYLQMNSLKPEDTAVYYCAADGKTYYRGGGPYYIYYRYDYWGQGTQVTVSS,low polyreactivity
11,QVQLVESGGGLVQAGGSLRLSCAASGSIFNRYAIGWYRQAPGKERELFAAISSTGSTYYADSVKGRFTISRDNAKKTVYLQMNRLKPEDTAVYYCNADVLALAPYDYWGQGTQVNVSS,low polyreactivity
12,QVQLVESGGGLVQAGGSLRLSCAASGSIFNRYAMGWYRQAPGKERELVAAIRSDGSTYYADSVKGRFTISRDNAKNTVYLQMNSLKPEDSAVYYCAAPLHRRYYEMDYWGQGSQVTVSS,low polyreactivity
13,QVQLVESGGGLVQAGGSLRLSCAASGSIFNRYAMGWYRQAPGKERELVAAIRSGDNTNYADSVKGRFTISRDNAKNTVYLQMNSLKPEDTAVYYCAIRTYYRSRTVGWGKMDYWGQGTQVTVSS,high polyreactivity
14,QVQLVESGGGLVQAGGSLRLSCAASGSIFNRYTMGWYRQAPGKERELVAAISKRGGSTYYADSVKGRFTISRDNAKNTVYLQMNSLKPEDPAVYYCAAAGYHSGKGGGYWGQGTQVTVSS,high polyreactivity
15,QVQLVESGGGLVQAGGSLRLSCAASGSIFNSNAMGWYRQAPGKERELVATIRWSGGSTNYADSVKGRFTISRDNAKNTVYLQMNSLKPEDTAVYYCAVLPRGSNGMDYWGQGTQVTVSS,low polyreactivity
16,QVQLVESGGGLVQAGGSLRLSCAASGSIFNSYDMGWYRQAPGKERELVAAIRSRVGSTYYADSVKGRFTISRDNAKNSVYLQMNSLKQEDTAVYYCIKDNAVDRLPWFQVTYDYWGQGTQVTVSS,low polyreactivity
17,QVQLVESGGGLVQAGGSLRLSCAASGSIFNTYAMGWYRQAPGKEREFVASITYRGSNTYYADSVKGRFTISRDNAKNTVYLQMNSLKPEDTAVYDCAADSFDYRPEYDYWGQGTQVTVSS,low polyreactivity
18,QVQLVESGGGLVQAGGSLRLSCAASGSIFNVNSMGWYRQAPGKERELVAAISSGGDTYYADSVKGRFTISRDNAKNTVYLQMNSLKPEDTAVYYCAKQSYTLYTLLYDYWGLGTQVTVSS,low polyreactivity
19,QVQLVESGGGLVQAGGSLRLSCAASGSIFNWNAKAWYRQAPVKERELVAAITGSGTSTYYADSVKGRFTISPDYAKNTVYLQMNSLKPQDTAVYYCAVTRRSRYGYWGQGTQVTVSS,high polyreactivity
20,QVQLVESGGGLVQAGGSLRLSCAASGSIFNWYAMGWYRQARGKERELVAAISYSGTRTYYADSVKGRFTISRDNAKNTVNLQLNSLKPEDTAVYYCNRAYYTRWYTKFDYWGQGTQVTVSS,high polyreactivity
21,QVQLVESGGGLVQAGGSLRLSCAASGSIFNYNAMGWYRQAPGKERELVAAISWSGGSTYYADSVKGRFTISRDNAKNTVYLQMNSLKPEDTAVYYCAVATGLLYKSHGYWGQGTQVTVSS,low polyreactivity
